Experimental data from patent US20090136516A1 (DUKE UNIVERSITY, published 2009).

What was measured:
mouse CD20 [1] = molecular target: T1, mouse CD20 (mouse, UniProt P19437 1-291); experiment: flow cytometry, mouse spleen CD19+ B cells, control staining (background)
T1 construct: whole, on cells; Endogenous mouse CD20 on primary B cells; also called cell-surface CD20
T1 sequence (looked up): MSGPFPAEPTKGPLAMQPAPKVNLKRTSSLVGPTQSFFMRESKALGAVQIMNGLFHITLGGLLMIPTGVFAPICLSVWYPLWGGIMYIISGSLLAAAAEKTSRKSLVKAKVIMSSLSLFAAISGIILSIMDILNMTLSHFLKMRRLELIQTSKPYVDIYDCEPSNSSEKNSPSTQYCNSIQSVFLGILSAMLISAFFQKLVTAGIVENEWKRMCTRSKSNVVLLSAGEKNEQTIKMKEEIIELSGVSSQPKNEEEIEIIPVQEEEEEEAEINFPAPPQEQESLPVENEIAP

human CD20 [2] = molecular target: T2, human CD20 (human, UniProt P11836 1-297); experiment: flow cytometry, human blood B cells, secondary antibody alone (background)
T2 construct: whole, on cells; also called cell surface CD20
T2 sequence (looked up): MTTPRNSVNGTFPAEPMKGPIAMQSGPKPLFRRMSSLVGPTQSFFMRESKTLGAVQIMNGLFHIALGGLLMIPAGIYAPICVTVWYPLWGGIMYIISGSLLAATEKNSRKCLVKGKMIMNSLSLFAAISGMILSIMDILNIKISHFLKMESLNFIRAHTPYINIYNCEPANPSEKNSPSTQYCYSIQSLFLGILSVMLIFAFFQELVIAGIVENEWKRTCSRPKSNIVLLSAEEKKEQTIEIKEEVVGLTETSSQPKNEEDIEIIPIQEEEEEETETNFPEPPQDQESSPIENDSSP

human CD20 [3] = molecular target: T2, human CD20; experiment: flow cytometry, BJAB cells, secondary antibody alone (background)
human CD20 [4] = molecular target: T2, human CD20; experiment: flow cytometry, DHL-4 cells, secondary antibody alone (background)
human CD20 [5] = molecular target: T2, human CD20; experiment: flow cytometry, Raji cells, secondary antibody alone (background)
mouse CD20 (mouse) = molecular target: T3, mouse CD20 (mouse) (UniProt P19437); experiment: flow cytometry, mouse spleen CD19+ B cells, mAb at 0.5 µg/mL, isotype-specific secondary antibody
T3 sequence (looked up): T1 sequence (looked up)

mouse CD20 [6] = molecular target: T1, mouse CD20; experiment: indirect immunofluorescence, flow cytometry, cultured mouse spleen B cells at 37 C; set-up: reference not given here
mouse CD20 [7] = molecular target: T1, mouse CD20; experiment: flow cytometry, mouse spleen CD19+ B cells, mAb at 0.5 µg/mL, isotype-specific secondary antibody
Protocol: Twelve mouse anti-mouse CD20 monoclonal antibodies, with representatives of each IgG isotype, were assessed for their ability to bind B cells and deplete them in vivo. Each monoclonal antibody reacted uniformly with CD19⁺ primary B cells in vitro with characteristic mean fluorescence intensities that were independent of monoclonal antibody isotype (FIG. 6A). When monoclonal antibody reactivity with primary B cells was assessed over a range of monoclonal antibody concentrations, most monoclonal antibodies reached saturating levels of staining when used at concentrations between 1-10 μg/mL (FIG. 6B). […] When all monoclonal antibodies were used at 0.5 μg/mL, each monoclonal antibody reacted uniformly with CD19⁺ primary B cells with characteristic low to high mean fluorescence intensities (FIG. 6C, Table 5). Similar results were obtained using a mouse CD20 cDNA-transfected pre-B cell line with anti-mouse Ig secondary antibody. Based on this analysis, the MB20-1 monoclonal antibody represented monoclonal antibodies with the lowest relative affinity/avidity, while the MB20-18 monoclonal antibody reacted strongly with B cells and stained B cells at the highest levels of all 12 anti-CD20 monoclonal antibodies (Table 5).

human CD20 [8] = molecular target: T2, human CD20; experiment: indirect immunofluorescence, flow cytometry, DHL-4 cells, saturating mAb
Protocol: (§1) Reactivity of human blood lymphocytes and the Raji, BJAB or DHL-4 B lymphoblastoid cell lines with anti-CD20 monoclonal antibodies at saturating concentrations or with secondary antibody alone (control). The anti-CD20 monoclonal antibodies were used at concentrations that were determined to be saturating and that gave optimal staining. 1F5, B9E9 and 1H4 (IgG2a) monoclonal antibodies were used as ascites fluid diluted 1:200. HB20-3, -4 and -25 monoclonal antibodies were used as tissue culture supernatant fluid. B1 monoclonal antibody was used at either 10 μg/mL of purified monoclonal antibody or as tissue culture supernatant fluid. In all cases, monoclonal antibody staining was visualized using PE-conjugated isotype-specific secondary antibodies with flow cytometry analysis. Values represent the mean linear fluorescence intensity of staining for each B cell population as determined by flow cytometry analysis. Results are representative of those obtained in ≧3 experiments.

human CD20 [9] = molecular target: T2, human CD20; experiment: indirect immunofluorescence, flow cytometry, human blood B cells, saturating mAb
Protocol: as §1

human CD20 [10] = molecular target: T2, human CD20; experiment: indirect immunofluorescence, flow cytometry, Raji cells, saturating mAb
Protocol: as §1

human CD20 [11] = molecular target: T2, human CD20; experiment: indirect immunofluorescence, flow cytometry, BJAB cells, saturating mAb
Protocol: as §1

isotype-matched control monoclonal antibodies (antibody)
B cell reactivity (mean linear fluorescence intensity) (mean linear fluorescence intensity) (mouse CD20 [1]): < 6

secondary antibody alone (control)
mean linear fluorescence intensity (mean linear fluorescence intensity) (human CD20 [2]): 1
mean linear fluorescence intensity (mean linear fluorescence intensity) (human CD20 [3]): 10
mean linear fluorescence intensity (mean linear fluorescence intensity) (human CD20 [4]): 1
mean linear fluorescence intensity (mean linear fluorescence intensity) (human CD20 [5]): 3

B1: MB20-16 monoclonal antibody (antibody, part only; not given: light chain, V domains shown, part only)
VH: EVQLQESGPELVKPGASVKMSCKASGYTFTDYNLHWVKQSHGQSLEWIGYINPNNGGATYNQKFTGKATLTVNRSSSTAYMELRSLTSDDSAVYYCAEIYDGYYWGQGTTLTVSS
B cell reactivity (mean linear fluorescence intensity) (mean linear fluorescence intensity) (mouse CD20 (mouse)): 170

B2: MB20-11 monoclonal antibody (antibody, part only; not given: light chain, V domains shown, part only)
VH: EVQLQESGPELVKPGASVKMSCKASGYKITDYNMHWVKQSHGKSLEWIGYIAPYNGGTTYNQKFKGKATLTVNKSSSTAYMELRSLTSEDSAVYYCAGALDYWGQGTSVTVSS
increase in antibody binding over time (mouse CD20 [6]): 97%
B cell reactivity (mean linear fluorescence intensity) (mean linear fluorescence intensity) (mouse CD20 [7]): 158

B3: 1H4 (IgG2a) anti-CD20 monoclonal antibody (antibody)
chain 1: QVQLQQPGAELVKPGASVKMSCKTSGYTFTSYNVHWVKQTPGQGLEWIGAIYPGNGDTSFNQKFKGKATLTADKSSSTVYMQLSSLTSEDSAVYYCARSNYYGSSYVWFFDVWGAGTTGTGSS
chain 2: QIVLSQSPTILSASPGEKVTMTCRASSSVSYMDWYQQKPGSSPKPWIYATSNLASGVPARFSGSGSGTSYSLTISRVEAEDAATYYCQQWISNPPTFGAGTKLELK
mean linear fluorescence intensity (human CD20 [8]): 98 mean linear fluorescence intensity
mean linear fluorescence intensity (human CD20 [9]): 75 mean linear fluorescence intensity
mean linear fluorescence intensity (human CD20 [10]): 244 mean linear fluorescence intensity
mean linear fluorescence intensity (human CD20 [11]): 240 mean linear fluorescence intensity
